B1: ORF6 protein (SARS-CoV-2), P0DTC6 (parent)
chain: MFHLVDFQVTIAEILLIIMRTFKVSIWNLDYIINLIIKNLSKSLTENKYSQLDEEQPMEID

Variants of: B1
Conditions: with ima5_human KPNA1, P52294
ima5_human KPNA1, P52294, sequence (P52294 whole entry): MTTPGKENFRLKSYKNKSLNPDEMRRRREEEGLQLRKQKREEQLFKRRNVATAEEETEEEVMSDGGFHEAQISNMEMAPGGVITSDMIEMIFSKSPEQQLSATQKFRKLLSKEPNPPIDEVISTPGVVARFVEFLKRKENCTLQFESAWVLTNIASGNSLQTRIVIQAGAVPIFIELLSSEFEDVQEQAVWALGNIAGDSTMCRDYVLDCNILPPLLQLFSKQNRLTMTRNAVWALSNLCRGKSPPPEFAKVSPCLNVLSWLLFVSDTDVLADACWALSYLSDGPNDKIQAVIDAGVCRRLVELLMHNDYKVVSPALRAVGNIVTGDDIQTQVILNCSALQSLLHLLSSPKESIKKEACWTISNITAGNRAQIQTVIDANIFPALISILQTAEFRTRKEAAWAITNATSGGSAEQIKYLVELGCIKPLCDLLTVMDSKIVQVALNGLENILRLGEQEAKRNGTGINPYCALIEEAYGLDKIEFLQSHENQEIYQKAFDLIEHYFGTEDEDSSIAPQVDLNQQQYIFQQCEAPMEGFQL
In the case of M58R, the “effect of a mutation on the interaction” value is reported as “with no effect”.

Variants of: B1
Conditions: with ima1_human KPNA2, P52292
In the case of M58R, the “effect of a mutation on the interaction” value is reported as “with no effect”.

Variants of: B1
Conditions: with nup98_human NUP98, P52948
nup98_human NUP98, P52948, sequence (P52948 whole entry): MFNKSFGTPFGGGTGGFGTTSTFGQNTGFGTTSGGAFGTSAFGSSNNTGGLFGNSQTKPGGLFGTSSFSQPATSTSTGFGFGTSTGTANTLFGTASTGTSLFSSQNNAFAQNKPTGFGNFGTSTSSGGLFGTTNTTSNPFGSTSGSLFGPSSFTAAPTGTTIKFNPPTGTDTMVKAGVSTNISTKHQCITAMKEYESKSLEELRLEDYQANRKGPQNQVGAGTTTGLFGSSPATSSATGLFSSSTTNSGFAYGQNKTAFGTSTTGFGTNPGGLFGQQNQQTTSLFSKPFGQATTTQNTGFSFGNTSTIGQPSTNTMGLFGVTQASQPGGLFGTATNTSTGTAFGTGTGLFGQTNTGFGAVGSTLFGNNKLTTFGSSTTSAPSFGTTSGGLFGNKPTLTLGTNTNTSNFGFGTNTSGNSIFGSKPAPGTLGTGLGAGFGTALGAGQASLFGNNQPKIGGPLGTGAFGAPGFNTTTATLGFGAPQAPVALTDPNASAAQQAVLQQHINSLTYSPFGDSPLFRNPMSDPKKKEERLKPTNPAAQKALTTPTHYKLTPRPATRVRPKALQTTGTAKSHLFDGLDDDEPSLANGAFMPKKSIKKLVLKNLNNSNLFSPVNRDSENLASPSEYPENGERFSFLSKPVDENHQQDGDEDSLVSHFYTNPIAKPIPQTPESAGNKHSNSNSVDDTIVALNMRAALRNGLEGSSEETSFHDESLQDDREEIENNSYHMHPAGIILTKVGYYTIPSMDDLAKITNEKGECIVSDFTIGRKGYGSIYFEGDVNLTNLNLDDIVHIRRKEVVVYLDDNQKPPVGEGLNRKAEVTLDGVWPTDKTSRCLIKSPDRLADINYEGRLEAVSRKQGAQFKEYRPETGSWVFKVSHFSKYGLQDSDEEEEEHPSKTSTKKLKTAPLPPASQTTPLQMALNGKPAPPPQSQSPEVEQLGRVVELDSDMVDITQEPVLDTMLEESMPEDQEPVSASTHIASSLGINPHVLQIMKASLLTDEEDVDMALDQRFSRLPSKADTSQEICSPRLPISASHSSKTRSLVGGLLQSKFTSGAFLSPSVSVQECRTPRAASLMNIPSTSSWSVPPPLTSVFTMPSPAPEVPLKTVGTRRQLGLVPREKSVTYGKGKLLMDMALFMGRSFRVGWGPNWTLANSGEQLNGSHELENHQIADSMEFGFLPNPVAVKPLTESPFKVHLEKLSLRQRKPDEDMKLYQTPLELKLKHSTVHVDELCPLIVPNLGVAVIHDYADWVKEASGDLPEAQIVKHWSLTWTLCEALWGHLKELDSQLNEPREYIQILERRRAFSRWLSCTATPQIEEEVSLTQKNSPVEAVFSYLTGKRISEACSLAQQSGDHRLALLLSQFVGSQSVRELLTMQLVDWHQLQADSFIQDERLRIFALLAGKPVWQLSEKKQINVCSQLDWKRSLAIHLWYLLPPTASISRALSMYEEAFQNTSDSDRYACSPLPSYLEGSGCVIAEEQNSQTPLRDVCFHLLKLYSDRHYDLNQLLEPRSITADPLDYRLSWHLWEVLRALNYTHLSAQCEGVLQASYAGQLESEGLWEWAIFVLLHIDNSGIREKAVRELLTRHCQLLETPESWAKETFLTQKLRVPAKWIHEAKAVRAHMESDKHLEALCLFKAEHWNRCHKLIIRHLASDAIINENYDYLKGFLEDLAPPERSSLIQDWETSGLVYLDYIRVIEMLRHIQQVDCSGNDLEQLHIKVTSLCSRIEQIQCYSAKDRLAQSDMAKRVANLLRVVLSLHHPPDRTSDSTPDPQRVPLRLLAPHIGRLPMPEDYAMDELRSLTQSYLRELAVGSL
M58R was tested, and the “effect of a mutation on the interaction” value was “disrupting interaction strength”.

From IntAct's records for PubMed 33097660
